The results in this text go back to patent US20210347900A1.

The target of test [1] is human LOX1 on cells (human LOX1 transfected CHO TREX cells) (human) (UniProt P78380). Nature of the test: competition with DyLight 649 AGE-BSA on human LOX1 CHO TREX cells, FMAT.
Test [2] has as its target recombinant human LOX1 (R&D Systems) (human) (UniProt P78380). The test is described as follows: competition with biotin CRP on plate-bound recombinant human LOX1, DELFIA.
The target of test [3] is human LOX1 on cells (human LOX1 transfected CHO TREX cells) (human) (UniProt P78380). The test is described as follows: cell-based or functional assay.
For test [4] the target is unchanged. The test is described as follows: competition with DyLight 649 oxLDL on human LOX1 CHO TREX cells, FMAT.

Turning to “23C11, commercially available mouse anti-LOX-1 antibody”, the figures for the IC50 (read off the curve) in test [1], in test [2] and in test [4] were 2 nM, 10 nM and 3 nM, respectively. Besides, the IC50 of inhibition of Cypher 5E oxLDL internalization in hLOX1 CHO TREX cells (row label not given; assay assigned by block order of Table 5) in test [3] was determined as 2.85 nM. In test [3], the IC50 of inhibition of oxLDL-dependent ROS generation in hLOX1 CHO TREX cells (row label not given; assay assigned by block order of Table 5) was found to be 10.1 nM.
